In US6001988, “High affinity nucleic acid ligands to lectins” (NeXstar Pharmaceuticals, Inc.):

Assays:
[1] = target: T1, L-selectin (LS-Rg) (Homo sapiens, UniProt P14151 P14151:39-332); experiment: filter; room temp; 260 pM at 37 C; details: tags: human IgG2 Fc fusion (provided by A. Varki); label: 32P; hairpin
T1 chain: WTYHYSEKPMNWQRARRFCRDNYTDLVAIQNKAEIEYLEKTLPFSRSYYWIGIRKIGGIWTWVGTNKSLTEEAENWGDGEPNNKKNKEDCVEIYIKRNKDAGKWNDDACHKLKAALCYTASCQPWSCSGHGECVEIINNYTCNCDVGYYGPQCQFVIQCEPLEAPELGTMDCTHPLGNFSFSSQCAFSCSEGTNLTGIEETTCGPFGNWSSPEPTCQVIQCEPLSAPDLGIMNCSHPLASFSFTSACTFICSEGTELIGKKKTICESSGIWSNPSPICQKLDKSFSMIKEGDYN

[2] = target: T2, E-selectin (ES-Rg) (Homo sapiens, UniProt P16581 P16581:22-556); experiment: filter; room temp, Ca/Mg buffer; details: tags: extracellular domain fused to human IgG1 Fc (provided by A. Varki); chain copies: 2 (dimeric Fc chimera, inferred)
T2 chain: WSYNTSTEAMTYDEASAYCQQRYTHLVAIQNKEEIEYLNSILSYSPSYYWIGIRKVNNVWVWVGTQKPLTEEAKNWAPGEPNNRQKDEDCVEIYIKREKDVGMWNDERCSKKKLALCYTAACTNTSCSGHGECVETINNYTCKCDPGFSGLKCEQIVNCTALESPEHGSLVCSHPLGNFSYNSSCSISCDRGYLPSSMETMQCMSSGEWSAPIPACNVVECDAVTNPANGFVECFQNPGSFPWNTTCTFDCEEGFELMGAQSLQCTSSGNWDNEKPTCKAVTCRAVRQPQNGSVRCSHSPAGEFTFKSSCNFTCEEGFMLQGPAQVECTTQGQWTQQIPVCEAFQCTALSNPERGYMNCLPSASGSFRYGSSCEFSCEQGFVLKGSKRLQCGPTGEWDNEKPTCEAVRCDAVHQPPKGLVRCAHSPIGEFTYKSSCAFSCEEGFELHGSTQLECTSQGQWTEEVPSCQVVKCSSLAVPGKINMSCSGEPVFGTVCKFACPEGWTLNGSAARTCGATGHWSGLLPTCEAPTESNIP

[3] = target: T3, P-selectin (PS-Rg) (Homo sapiens, UniProt P16109 P16109:42-321); experiment: filter; room temp, Ca/Mg buffer; details: tags: lectin, EGF and first two CRD domains fused to human IgG1 Fc (provided by A. Varki); chain copies: 2 (dimeric Fc chimera, inferred)
T3 chain: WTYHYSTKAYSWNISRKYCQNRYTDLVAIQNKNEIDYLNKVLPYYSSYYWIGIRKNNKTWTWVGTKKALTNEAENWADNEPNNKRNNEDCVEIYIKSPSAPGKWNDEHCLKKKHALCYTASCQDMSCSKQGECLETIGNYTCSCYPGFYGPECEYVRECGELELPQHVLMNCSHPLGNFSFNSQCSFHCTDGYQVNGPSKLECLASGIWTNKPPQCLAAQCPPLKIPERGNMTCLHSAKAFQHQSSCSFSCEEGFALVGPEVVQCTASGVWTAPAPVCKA

[4] = target: T4, wheat germ agglutinin (WGA) (Triticum vulgare, UniProt P10968 P10968:27-197); experiment: filter; HBSS, room temp; 19.2 nM in Table IV; details: tags: free lectin, E Y Laboratories; label: 32P; hairpin
T4 sequence: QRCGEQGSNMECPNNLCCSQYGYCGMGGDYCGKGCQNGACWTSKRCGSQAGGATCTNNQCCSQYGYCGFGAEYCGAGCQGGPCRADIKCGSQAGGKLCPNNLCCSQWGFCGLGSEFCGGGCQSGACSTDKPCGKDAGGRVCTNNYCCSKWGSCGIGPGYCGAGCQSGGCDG
Experimental: (§1) The specifically eluted fraction was processed for use in the following round. Fractions eluted from immobilized WGA were heated at 90° C. for 5 minutes in 1% SDS, 2% β-mercaptoethanol and extracted with phenol/chloroform. RNA was reverse transcribed into cDNA by AMV reverse transcriptase at 48° C. for 60 min in 50 mM Tris-Cl pH (8.3), 60 mM NaCl, 6 mM Mg(OAc)_2, 10 mM DTT, 100 pmol DNA primer, 0.4 mM each of dNTPs, and 0.4 unit/µl AMV RT. […] C) Nitrocellulose Filter Partitioning As described in SELEX Patent Applications, the nitrocellulose filter partitioning method was used to determine the affinity of RNA ligands for WGA and for other proteins. Filter discs (nitrocellulose/cellulose acetate mixed matrix, 0.45 µm pore size, Millipore; or pure nitrocellulose, 0.45 µm pore size, Bio-Rad) were placed on a vacuum manifold and washed with 4 ml of HBSS buffer under vacuum. Reaction mixtures, containing ^32P labeled RNA pools and unlabeled WGA, were incubated in HBSS for 10 min at room temperature, filtered, and then immediately washed with 4 ml HBSS. The filters were air-dried and counted in a Beckman LS6500 liquid scintillation counter without fluor. WGA is a homodimer, molecular weight 43.2 kD, with 4 GlcNAc binding sites per dimer. For affinity calculations, we assume one RNA ligand binding site per monomer (two per dimer). […]

[5] = target: T2, E-selectin (ES-Rg); experiment: filter; 4 C, HSMC; details: tags: human IgG1 Fc fusion (provided by A. Varki), chain copies: 2, label: 32P
Experimental: (§2) As described in SELEX Patent Applications, the nitrocellulose filter partitioning method was used to determine the affinity of RNA ligands for LS-Rg and for other proteins. Filter discs (nitrocellulose/cellulose acetate mixed matrix, 0.45 um pore size, Millipore) were placed on a vacuum manifold and washed with 2 ml of HSMC buffer under vacuum. Reaction mixtures, containing ^32P labeled RNA pools and unlabeled LS-Rg, were incubated in HSMC for 10–20 min at 4° C., room temperature or 37° C., filtered, and then immediately washed with 4 ml HSMC at the same temperature. The filters were air-dried and counted in a Beckman LS6500 liquid scintillation counter without fluor.
(§3) The affinity of L-selectin ligands to ES-Rg, PS-Rg and CD22β-Rg were determined by nitrocellulose partitioning. […] In general, a ligand's affinity for ES-Rg is 10^3-fold lower and that for PS-Rg is about 10^4-fold less than for LS-Rg. […] The specificity of oligonucleotide ligand binding contrasts sharply with the binding of cognate carbohydrates by the selectins and confirms the assertion that SELEX ligands will have greater specificity than carbohydrate ligands.
(§4) *Dissociation constants were determined at 4° C. in HSMC buffer.

[6] = target: T1, L-selectin (LS-Rg); experiment: filter; 4 C, HSMC; 75 nM at room temp; details: tags: human IgG2 Fc fusion (provided by A. Varki); label: 32P; hairpin
Experimental: as §2
(§5) The dissociation constants for representative ligands from rounds 13 and 14, including all orphans, were determined by nitrocellulose filter binding experiments and are listed in Table IX. These calculations assume two RNA ligand binding sites per chimera. The affinity of random RNA cannot be reliably determined but is estimated to be approximately 10 µM.

[7] = target: T1, L-selectin (LS-Rg); experiment: filter; 4 C, HSMC; 9.2 nM at room temp; details: tags: human IgG2 Fc fusion (provided by A. Varki); label: 32P; hairpin
Experimental: as §2, §5

[8] = target: T3, P-selectin (PS-Rg); experiment: filter; 4 C, HSMC; details: tags: human IgG1 Fc fusion (provided by A. Varki); chain copies: 2; label: 32P; hairpin
Experimental: as §2, §3, §4

[9] = target: T1, L-selectin (LS-Rg); experiment: filter; room temp; 370 pM at 37 C; details: tags: human IgG2 Fc fusion (provided by A. Varki); label: 32P
[10] = target: T1, L-selectin (LS-Rg); experiment: filter; 4 C, HSMC; 14.9 nM at room temp; details: tags: human IgG2 Fc fusion (provided by A. Varki); label: 32P; hairpin
Experimental: as §2, §5

[11] = target: T1, L-selectin (LS-Rg); experiment: filter; room temp, Ca/Mg; 160 pM at 37 C; details: tags: human IgG2 Fc fusion (provided by A. Varki); label: 32P; hairpin
[12] = target: T2, E-selectin (ES-Rg); experiment: filter; room temp; details: tags: human IgG1 Fc fusion (provided by A. Varki); chain copies: 2; label: 32P; hairpin
Experimental: as §1, with “RNA” for “The specifically eluted fraction was processed for use in the following round. Fractions eluted from immobilized WGA were heated at 90° C. for 5 minutes in 1% SDS, 2% β-mercaptoethanol and extracted with phenol/chloroform. RNA”, “dimer). The monomer concentration is defined as 2 times the dimer concentration.” for “dimer).”
(§6) The affinity of representative cloned ligands for LS-Rg, ES-Rg, PS-Rg, CD22β-Rg and WGA was determined by nitrocellulose partitioning and the results shown in Table XIV. […]
(§7) *Kds were determined at room temperature.

[13] = target: T3, P-selectin (PS-Rg); experiment: filter; room temp; details: tags: human IgG1 Fc fusion (provided by A. Varki); chain copies: 2; label: 32P; hairpin
Experimental: as §1, with “RNA” for “The specifically eluted fraction was processed for use in the following round. Fractions eluted from immobilized WGA were heated at 90° C. for 5 minutes in 1% SDS, 2% β-mercaptoethanol and extracted with phenol/chloroform. RNA”, “dimer). The monomer concentration is defined as 2 times the dimer concentration.” for “dimer).”
as §6, §7

[14] = target: T1, L-selectin (LS-Rg); experiment: filter; 4 C, HSMC; 18 nM at room temp; details: tags: human IgG2 Fc fusion (provided by A. Varki); label: 32P
Experimental: as §2, §5

[15] = target: T1, L-selectin (LS-Rg); experiment: filter; 4 C, HSMC; 15.4 nM at room temp; details: tags: human IgG2 Fc fusion (provided by A. Varki); label: 32P; hairpin
Experimental: as §2, §5

[16] = target: T1, L-selectin (LS-Rg); experiment: filter; 4 C, HSMC; details: tags: human IgG2 Fc fusion (provided by A. Varki); label: 32P; no stem
Experimental: as §2, §5

B1: 230 (ssDNA)
DNA: CTACCTACGATCTGACTAGCTGCACACCTGAGGGTTACAAGGCGCTAGACGTAACCTCTCGCTTACTCTCATGTAGTTCC
For B1, the Kd [1] was 0.057 nM, the Kd [2] was 19 nM and the Kd [3] was 600 nM.

B2: 11.24 (ssRNA)
RNA: GGGAAAAGCGAAUCAUACACAAGACGGCUGUGUGGUGUUGGAGCGUCAUAGUAGGAGUCGUCACGAACCAAGGCGCUCCGCCAGAGACCAACCGAGAA
modifications: 2'-NH2 all C and U
Work on B2 yielded a Kd [4] of 19.4 nM.

B3: F13.57 (ssRNA)
RNA: GGGAGGACGAUGCGGUAACAUAAAGUAGCGCGUCUGUGAGAGGAAGUGCCUGGAUCAGACGACUCGCCCGA
modifications: 2'-NH2 all C and U
For B3, the Kd ([5]; hairpin) was 2700 nM and the Kd [6] was 3 nM.

B4: F13.48 (ssRNA)
RNA: GGGAGGACGAUGCGGAAAGUUAUGAGUCCGUAUAUCAAGGUCGACAUGUGUGAAUCAGACGACUCGCCCGA
modifications: 2'-NH2 all C and U
With B4 the Kd [7] was 15.9 nM and the Kd [8] was 0.72 µM.

B5: 174 (ssDNA)
DNA: CTACCTACGATCTGACTAGCCATTCACCATGGCCCCTTCCTACGTATGTTCTGCGGGTGGCTTACTCTCATGTAGTTCC
With B5 the Kd [9] was 0.043 nM, the Kd [2] was 28 nM and the Kd [3] was 380 nM.

B6: F13.32 (ssRNA)
RNA: GGGAGGACGAUGCGGCGCGUAUGUGUGAAAGCGUGUGCACGGAGGCGUCUACAAUCAGACGACUCGCCCGA
modifications: 2'-NH2 all C and U
B6 gave a Kd [8] of 17 µM and a Kd [10] of 15.7 nM.

B7: 227 (ssDNA)
DNA: CTACCTACGATCTGACTAGCCGGACATGAGCGTTACAAGGTGCTAAACGTAACGTACTTGCTTACTCTCATGTAGTTCC
For B7, the Kd [11] was 0.043 nM, the Kd [12] was 33 nM and the Kd [13] was 560 nM.

B8: F13.51 (ssRNA)
RNA: GGGAGGACGAUGCGGAUGUAAAUCUAGGCAGAAACGUAGGGCAUCCACCGCAACGACAGACGACUCGCCCGA
modifications: 2'-NH2 all C and U
B8 was tested, and the Kd [5] was 2000 nM and the Kd [14] was 8.8 nM.

B9: F14.9 (ssRNA)
RNA: GGGAGGACGAUGCGGAAACCUUGAUGUGUGAUAGAGCAUCCCCCAGGCGACGUACCAGACGACUCGCCCGA
modifications: 2'-NH2 all C and U
For B9, the Kd [15] was 8.2 nM.

B10: F14.25 (ssRNA)
RNA: GGGAGGACGAUGCGGUAGAGGUAGUAUGUGUGGGAGAUGAAAAUACUGUGGAAAGCAGACGACUCGCCCGA
modifications: 2'-NH2 all C and U
Work on B10 yielded a Kd [16] of 1300 nM.
